According to patent US20250122278A1, “ANTI-INTERLEUKIN-9 ANTIBODY AND USE THEREOF” (GUANGDONG KEGUANDA PHARMACEUTICAL TECHNOLOGY CO., LTD., priority 2022, published 2025):

Legend:
[1] = target: T1, biotin-conjugated IL-9-Fc (Biotin-IL-9-Fc) (UniProt P15248 19-144, biotin-conjugated (sites not given)); test: flow cytometry blocking assay (IL-9-IL-9R blocking determination): serially diluted antibody against the binding of Biotin-IL-9-Fc to 293-IL-9R cells (IL-9R), MFI; unit taken from the x axis, the table prints none
T1 construct: range 19-144; also called Fc-IL-9 recombinant protein; Fc-IL-9; not shown: Fc tag (Fc2 in the vector name pLVX-Fc2-IL9 (19-144)-Puro)

[2] = target: T2, IL-9-His recombinant protein (UniProt P15248 19-144); test: ELISA on coated IL-9-His, OD450; unit taken from the x axis, the table prints none
T2 construct: range 19-144; used as coating antigen in the ELISAs; also called IL9 (19-144)-His; not shown: His tag, C-terminal by the vector name
T2 sequence (P15248 19-144 limits assumed, form in doubt): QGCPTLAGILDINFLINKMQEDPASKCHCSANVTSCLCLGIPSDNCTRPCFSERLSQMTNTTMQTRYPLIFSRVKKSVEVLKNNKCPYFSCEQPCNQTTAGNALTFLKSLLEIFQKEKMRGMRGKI

T1 sequence (P15248 19-144 limits assumed, form in doubt): as above

EC50 [1]: 10.2 µg/mL
EC50 [2]: 0.0459 µg/mL
B1: 7F3com (antibody, V domains shown)
VH: QVQLVQSGAEVKKPGSSVKVSCKASGGTFSYYWIEWVRQAPGQGLEWMGEILPGSGTTNPNEKFKGRVTITADESTSTAYMELSSLRSEDTAVYYCARADYYGSDYVKFDYWGQGTLVTVSS
VL: DIQMTQSPSSLSASVGDRVTITCKASQHVITHVTWYQQKPGKAPKLLIYGTSYSYSGVPSRFSGSGSGTDFTLTISSLQPEDFATYYCQQFYEYPLTFGGGTKVEIK
notes: also called IL-9 positive control antibody; IL-9 positive antibody
